Square brackets hold non-standard residues; d marks the D form. Ends that are not written are not given here. pY = N[C@@H](Cc1ccc(OP(=O)(O)O)cc1)C(=O)O; Lys(Me3) = C[N+](C)(C)CCCC[C@H](N)C(=O)O; pS = N[C@@H](COP(=O)(O)O)C(=O)O
T1: BRPF1 PWWP domain (aa 1064–1214) (UniProt P55201 1064-1214)
T1 sequence (looked up): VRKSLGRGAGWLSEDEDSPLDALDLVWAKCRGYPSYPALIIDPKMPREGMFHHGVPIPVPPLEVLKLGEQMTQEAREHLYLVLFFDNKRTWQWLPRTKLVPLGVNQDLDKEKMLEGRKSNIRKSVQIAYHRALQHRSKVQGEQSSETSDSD


Columns and labels:
[1] = biological target: H3K9me3S10ph peptide (Homo sapiens) (UniProt P68431); conditions: cited from earlier work
[2] = biological target: H3K9me3 peptide (Homo sapiens) (UniProt P68431); conditions: cited from earlier work
[3] = biological target: T1, BRPF1 PWWP domain (aa 1064–1214); experiment: NMR titration
[4] = biological target: Tudor domain of human PHF1 (aa 14–87) (human, UniProt O43189 14-87); experiment: NMR titration
Chain of Tudor domain of human PHF1 (aa 14–87) (O43189 14-87): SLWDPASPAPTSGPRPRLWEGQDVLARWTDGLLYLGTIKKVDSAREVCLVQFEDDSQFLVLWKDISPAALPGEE

Molecule	Kd [1] [µM]	Kd [2] [µM]	Kd [3] [µM]	Kd [4] [µM]
ATRX ADD (from UniProt P46100)	0.19	0.11	–	–
KSAPSTGGV[Lys(Me3)]KPHR[pY]RPGT (peptide, UniProt P84243 28-46, looked up) [histone H3.3K36me3Y41ph peptide (residues 27–45 of H3.3)]	–	–	1800	480
KSAP[pS]TGGV[Lys(Me3)]KPHRYRPGT (peptide, UniProt P84243 28-46, looked up) [histone H3.3S31phK36me3 peptide (residues 27–45 of H3.3)]	–	–	2300	260
KSAPSTGGV[Lys(Me3)]KPHRYRPGT (peptide, UniProt P84243 28-46, looked up) [histone H3.3K36me3 peptide (residues 27–45 of H3.3)]	–	–	3900	37
